Results on one substance are retold here after article PMC6854463.

This experiment addresses MPER-TM2 (gp41 residues 630-711, containing the complete TM region) (HIV-1). Nature of the experiment: not stated; MPER-TM2 solubilized in a buffer containing β-D-octyl glucoside (β-OG); oligomeric state (Figure S5B).

Take “MPER-TM2 (gp41 residues 630-711, containing the complete TM region) (domain or fragment)”: the stoichiometry N – broadly, a count of units in the complex or per binding partner – came out at 3.
